B2: pyroglutamylated RFamide Peptide Receptor (QRFPR) (receptor)
chain: MQALNITPEQFSRLLRDHNLTREQFIALYRLRPLVYTPELPGRAKLALVLTGVLIFALALFGNALVFYVVTRSKAMRTVTNIFICSLALSDLLITFFCIPVTMLQNISDNWLGGAFICKMVPFVQSTAVVTEILTMTCIAVERHQGLVHPFKMKWQYTNRRAFTMLGVVWLVAVIVGSPMWHVQQLEIKYDFLYEKEHICCLEEWTSPVHQKIYTTFILVILFLLPLMVMLILYSKIGYELWIKKRVGDGSVLRTIHGKEMSKIARKKKRAVIMMVTVVALFAVCWAPFHVVHMMIEYSNFEKEYDDVTIKMIFAIVQIIGFSNSICNPIVYAFMNENFKKNVLSAVCYCIVNKTFSPAQRHGNSGITMMRKKAKFSLRENPVEETKGEAFSDGNIEVKLCEQTEEKKKLKRHLALFRSELAENSPLDSGH
notes: Endogenous receptor of MCF-7 / U2OS cells and human tissues; also called GPR103; orexigenic neuropeptide QRFP receptor

Columns and labels:
[1] = target: T1, GDF15 (Homo sapiens, UniProt Q99988); experiment: GST-pulldowns of GDF15 with GST-fusion QRFPR and CLPTM1 fragments; format: binding; details: equal amounts of GST-fusion protein and GDF15, 4 hrs at 4° C., extensive washes incl. high salt; FIG. 8B
T1 construct: purchased Abcam
T1 sequence (Q99988 197-308 limits assumed): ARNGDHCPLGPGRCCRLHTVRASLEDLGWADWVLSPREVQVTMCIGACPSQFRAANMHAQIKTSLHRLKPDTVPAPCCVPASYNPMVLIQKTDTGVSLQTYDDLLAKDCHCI
Experimental: We then assembled the GDF15 binding motifs from QRFPR and CLPTM1 using synthetic hybridized oligonucleotides corresponding to the motifs from either extracellular domain 3, 4 (QRFPR) or CLPTM1. The oligonucleotides were inserted in a pGEX4T1 backbone, expressed in BL21 DE3pLys bacteria and purified. The correct sequences were confirmed by Sanger sequencing.
We then incubated the purified GST-fusion proteins with equal amounts of GDF15 and subjected the analytes to extensive washes including high salt buffers.
In short, selected fragments of the receptors were constructed from synthetic oligomers (ultramers, IDT technologies), the flanking ends digested by restriction enzymes, and inserted in a pGEX 4T-1 vector (Pharmacia Biotech). The constructs were cloned in a DH5 a library efficiency bacteria (Invitrogen). The correct clones were identified by analytical restriction digest run on a 2% agarose gel, and validated by Sanger sequencing at the Uppsala sequencing centre.
The validated clones were used to transform BL21pLYs bacteria. […]
The material was denatured by boiling in SDS loading dye supplemented with DDT for 5 min, then run on a 12% acrylamide gel (120 V for 70 min) and analysed by ECL and CCD camera (Biorad). […]

[2] = test system: QRFPR; experiment: In situ PLA detection of QRFPR at the cell surface in U2OS osteosarcoma cells; format: cell-based; details: U2OS osteosarcoma cells; GDF15 + peptide; FIG. 9E
From the text: A-D) In situ PLA detection of the Rab11-QRFPR complex following exposure of MCF7 cells to GDF15. A) +Ctrl peptide. B) +QRFPR extracellular N-terminal peptide. C-D) +QRFPR extracellular loop3 (domain 4) peptide. The level of the Rab11-QRFPR complex is reduced by the peptide from extracellular loop3 of QRFPR. E) in situ PLA detection of QRFPR in U2OS osteosarcoma cells.
(§1) We choose to use this assay as a way to investigate if the activity of GDF15 could be inhibited by various agents. […] GDF15-induced formation of RAB11/QRFPR endosomes is inhibited by QRFPR peptides (FIG. 9A-D). Equal amounts of a mastermix of GDF15 was aliquoted and pre-incubated in PBS with the various receptor fragment before addition to cells. Sequentially, the cells were treated with either PBS, GDF15 or GDF15/QRFPR-derived peptide mixes.

[3] = test system: QRFPR; experiment: In situ detection of QRFPR at the cell surface after GDF15 with or without peptide (FIG. 10A-C); format: cell-based; details: cells exposed to GDF15 + synthetic peptide
From the text: (§2) A-C) In situ detection of QRFPR at the cell surface. A) Negative control cells with no added GDF15. B) Cells after exposure to GDF15. C) Cells after exposure to GDF15+ synthetic peptide GEKEYDDVTIK derived from extracellular domain 4 of QRFPR. […] D-F) In situ PLA detection of ACTRIIB at the cell surface. D) Control cells with no added P518. E) Cells after exposure to P518. F) Cells after exposure to P518+ synthetic peptide GEKEYDDVTIK derived from extracellular domain 4 of QRFPR in 125 molar excess. The ability of P518 to increase the level of ACTRIIB at the cell surface was not affected by the peptide.
FIGS. 10A-10C confirm that GDF15 reduces the level of QRFPR at the cell surface, and that this reduction may be reversed by a peptide derived from extracellular loop 3 (extracellular domain 4) of QRFPR.

[4] = test system: QRFPR; experiment: In situ PLA detection of RAB11-QRFPR double positive endosomes in MCF7 cells; format: cell-based; details: MCF7 cells; GDF15 pre-incubated with receptor fragment; FIG. 9A-D
From the text: The RAB11 protein is a marker for recycling endosomes back to the cell surface, and the RAB11 pathway is also involved in exosome assembly (Savina et al., 2005; Savina et al., 2002). RAB11 was thus thought to be a likely candidate to be involved in QRFPR reduction on the cell surface induced by GDF15
An in situ PLA assay was developed to detect the proximity of RAB11 and QRFPR. In the absence of GDF15, only a low signal is observed (FIGS. 5A and 5C).
as §1

[5] = target: T2, QRFPR (Homo sapiens, UniProt Q96P65); experiment: ACTRIIB assay: in situ PLA detection of ACTRIIB at the cell surface after QRFPR agonist P518; format: cell-based; details: P518 + peptide in 125 molar excess, FIG. 10D-F
T2 construct: endogenous in cells
T2 sequence (Q96P65 1-431): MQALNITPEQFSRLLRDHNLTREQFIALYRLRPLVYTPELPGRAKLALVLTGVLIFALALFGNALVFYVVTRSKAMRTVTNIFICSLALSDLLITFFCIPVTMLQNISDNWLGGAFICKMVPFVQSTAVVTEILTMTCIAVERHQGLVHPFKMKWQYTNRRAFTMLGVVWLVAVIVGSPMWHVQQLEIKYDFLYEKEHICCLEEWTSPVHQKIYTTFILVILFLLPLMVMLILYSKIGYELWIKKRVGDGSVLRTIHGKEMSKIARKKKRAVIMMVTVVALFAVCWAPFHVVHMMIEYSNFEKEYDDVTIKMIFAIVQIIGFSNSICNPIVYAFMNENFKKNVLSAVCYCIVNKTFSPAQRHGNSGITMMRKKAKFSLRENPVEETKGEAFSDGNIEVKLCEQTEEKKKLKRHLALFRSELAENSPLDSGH
From the text: as §2
The effect of the QRFPR agonist p518 was measured. In short, p518/QRFP-26 was purchased from Phoenix Peptides, CA and processed according to the manufacturer's instructions. Cells were serum-starved prior to P518 stimulation overnight.
P518 was mixed with either PBS or QRFPR receptor fragment dissolved in PBS prior to stimulation of cells.

[6] = target: B2; experiment: in situ PLA on tissue micro array
[7] = target: T3, Cleft Lip and Palate Transmembrane protein 1 (CLPTM1) (human, UniProt O96005 2-669); experiment: in situ PLA on tissue micro array
T3 construct: Endogenous receptor of NK-92 cells, CD14+ cells and human tissues
T3 sequence: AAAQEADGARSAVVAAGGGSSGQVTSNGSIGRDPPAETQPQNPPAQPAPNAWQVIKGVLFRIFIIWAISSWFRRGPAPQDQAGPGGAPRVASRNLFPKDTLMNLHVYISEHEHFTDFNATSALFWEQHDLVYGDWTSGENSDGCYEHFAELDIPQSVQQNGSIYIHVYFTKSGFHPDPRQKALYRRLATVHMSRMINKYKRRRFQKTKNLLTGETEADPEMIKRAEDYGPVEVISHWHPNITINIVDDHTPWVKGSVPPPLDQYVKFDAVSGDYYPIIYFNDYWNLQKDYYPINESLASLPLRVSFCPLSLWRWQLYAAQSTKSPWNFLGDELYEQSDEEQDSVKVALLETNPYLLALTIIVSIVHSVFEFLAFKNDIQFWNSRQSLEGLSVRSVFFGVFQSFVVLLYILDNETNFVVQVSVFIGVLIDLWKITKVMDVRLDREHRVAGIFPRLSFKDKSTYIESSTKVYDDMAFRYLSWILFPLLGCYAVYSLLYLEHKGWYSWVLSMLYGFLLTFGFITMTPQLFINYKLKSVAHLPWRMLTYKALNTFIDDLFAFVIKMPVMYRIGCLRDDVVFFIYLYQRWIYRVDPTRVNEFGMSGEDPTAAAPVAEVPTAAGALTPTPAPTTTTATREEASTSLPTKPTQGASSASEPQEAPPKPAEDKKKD

[8] = target: T4, ACTRIIB (UniProt Q13705 19-512, limits assumed); experiment: in situ PLA on serum-starved MCF7 cells
T4 construct: whole, on cells; also called activin type II receptor B
Experimental: MCF7 cells were stimulated with GDF15 (GDF15 from isolated mammalian source or recombinant derived from E. coli purchased from Abcam and Biovision). An assay was developed for monitoring the activity of GDF15 and to investigate the dynamics of receptor(s) such as QRFPR modulation by the ligand.
Serum-starved MCF7 cells were treated with GDF15, and an in situ PLA detection assay was developed to detect the interaction between ACTRIIB and QRFPR using antibodies from two different species, thus allowing the use of Duolink secondary detection reagents. The presence of the QRFPR-ACTRIIB complex was detected in the absence of GDF15 (see FIG. 3A, indicated by arrows).

[9] = target: T5, Growth and differentiation factor 15 (GDF15) (UniProt Q99988 197-308, limits assumed); experiment: Fc-fusion pull-down, said to agree with the array results
T5 construct: Purchased GDF15 added to cells, pull-downs, peptide arrays and ELISA; also called MIC1
T5 sequence (looked up): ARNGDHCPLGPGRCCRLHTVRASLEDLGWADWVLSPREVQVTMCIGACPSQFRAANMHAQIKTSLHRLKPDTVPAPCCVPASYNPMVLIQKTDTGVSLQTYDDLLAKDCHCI
Experimental: 20 μg Fc fusion protein constructs were incubated with 0.5 μg GDF15 and protein-G bead with mixing for 6 hrs in +4 C in PBST+1% BSAs. Wash 6 times: 3 times PBST, change tubes, 2 washes PBST+220 mM NaCl. Last wash PBS. The beads were collected using a table-top centrifuge set at 500 g for 5 minutes between washes. Detection The material was loaded on a 4-12% gradient gel, run at 100 volt, transferred to PVDF membrane using a Turbo Tank blot system, blocked by PBS with 3% BSA 1 hr RT, and incubated with RD systems a monoclonal anti-GDF15 antibody overnight. A secondary antibody: mouse HRP 1:2000 was used for detection. The size of band was estimated by comparing with a seeblue2 protein ladder marker run in an adjacent lane.

T4 sequence (Q13705 19-512 limits assumed): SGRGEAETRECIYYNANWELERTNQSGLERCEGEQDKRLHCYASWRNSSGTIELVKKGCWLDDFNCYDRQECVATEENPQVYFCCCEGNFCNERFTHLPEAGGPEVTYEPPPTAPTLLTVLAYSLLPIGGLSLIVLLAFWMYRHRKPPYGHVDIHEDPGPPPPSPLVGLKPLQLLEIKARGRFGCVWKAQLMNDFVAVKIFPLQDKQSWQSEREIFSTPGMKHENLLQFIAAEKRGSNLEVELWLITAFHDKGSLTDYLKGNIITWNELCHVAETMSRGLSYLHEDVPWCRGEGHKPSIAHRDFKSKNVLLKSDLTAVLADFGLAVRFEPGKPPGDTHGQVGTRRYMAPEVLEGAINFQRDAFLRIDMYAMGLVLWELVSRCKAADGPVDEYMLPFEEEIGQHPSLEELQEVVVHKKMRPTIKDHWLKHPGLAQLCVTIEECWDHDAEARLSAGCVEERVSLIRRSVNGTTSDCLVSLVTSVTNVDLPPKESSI

EIKYDFLYEKEHICCLEEWTS (listed as Homo sapiens) [SEQ ID NO:7]
GDF15 binding to GST-fusion protein (GST-pulldown) [1]: Increased binding

ALFWEQHDLVYGDWTS (listed as Homo sapiens) [SEQ ID NO:18]
GDF15 binding to GST-fusion protein (GST-pulldown) [1]: Increased binding

GEKEYDDVTIK [synthetic peptide derived from extracellular domain 4 of QRFPR]
level of QRFPR detected at the cell surface [2]: restore the level of QRFPR detected at the cell surface to the same level as control cells | QRFPR at the cell surface [3]: reversed the removal of QRFPR from the cell surface | GDF15-induced RAB11-QRFPR double positive endosomes [4]: substantially reduced | P518 induced ACTRIIB levels [5]: not affected | P518 induced ACTRIIB levels ([5]; listed as QRFPR receptor fragment): slight increase of ACTRIIB

B1: endogenous GDF15 (in MCF-7 cells treated with Sulindac sulphide and in human tumour tissue arrays) (ligand, UniProt Q99988 197-308, looked up)
chain: ARNGDHCPLGPGRCCRLHTVRASLEDLGWADWVLSPREVQVTMCIGACPSQFRAANMHAQIKTSLHRLKPDTVPAPCCVPASYNPMVLIQKTDTGVSLQTYDDLLAKDCHCI
notes: Detected in complex with receptors by in situ PLA
binding result [6]: binds | binding result [7]: binds

B2
binding result [8]: binds

B3: AP1 (control protein): AAAQEADGARSAVVAAGGGSSGQVTSNGSIGRDPPAETQPQNPPAQPAPNAGGGGSGGGGSGGGGS-Fc mouse IgG1 (Fc fusion, not shown: a dimerising Fc or GST)
chain: AAAQEADGARSAVVAAGGGSSGQVTSNGSIGRDPPAETQPQNPPAQPAPNAGGGGSGGGGSGGGGS
notes: also called control polypeptide
binding result [9]: no binding
